US7708999B2, “Remedies for arthritis” (Kyowa Hakko Kirin Co., Ltd., priority 2001, dated 2010)

What was measured:
[1] = tested on: mouse collagen-induced arthritis model; assay: Mouse collagen-induced arthritis model; format: in vivo; details: day 42; 2 mg/mL, 200 μL per mouse intraperitoneally; compared to saline administrated group
Procedure: The mouse collagen-induced arthritis model was prepared in the following manner according to the method of Kamada et al., (Kamada H. et al., Jpn. J. Pharmacol., 70, 169-175, 1996) using DBA/1J mice (male, 7 weeks old, Japan Charles River).
A bovine cartilage-derived type II collagen solution (manufactured by Collagen Gijutsu Kenshu) was mixed with a Freund's complete adjuvant (manufactured by Iatron) under ice cooling to form an emulsion which was adjusted such that the final concentration of the type II collagen became 1.5 mg/mL. The emulsion was intradermally injected in amount of 100 μL at the base of the tail of the mouse for sensitization. Twenty-one days later, the additional immunization was performed in the same manner. One group consisted of 10 mice. Anti-FGF-8 neutralizing antibody KM1334 was dissolved in a saline (manufactured by Otsuka Seiyaku Kojo) to a final concentration of 2 mg/mL, and the solution was intraperitoneally administered to a KM1334 administrated group at a dose of 200 μL for each mouse once a day on days 21, 25, 28, 32, 35 and 39 from the initial sensitization of the mouse collagen-induced arthritis model. […] The change with time of edemas of all limbs in collagen-induced arthritis was evaluated by the scoring from 0 to 4 in each limb to a total of 16 at the maximum score in all limbs. […]

FGF-8 = target: T1, FGF-8 (Homo sapiens, UniProt P55075); assay: Inhibition by antibody of FGF-8-promoted degradation of extracellular matrix of rabbit chondrocytes; format: cell-based; details: FGF-8 100 ng/mL, 48 hours, 1, 3 or 10 μg/mL tested
T1 construct: purchased R & D
T1 sequence (P55075 23-215 isoform P55075-3 limits assumed): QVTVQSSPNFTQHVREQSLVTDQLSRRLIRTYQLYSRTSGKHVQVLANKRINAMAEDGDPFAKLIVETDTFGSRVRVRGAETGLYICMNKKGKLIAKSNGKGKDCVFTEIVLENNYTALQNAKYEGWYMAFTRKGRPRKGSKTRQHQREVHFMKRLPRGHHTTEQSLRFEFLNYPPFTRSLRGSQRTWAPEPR
Procedure: Rabbit articular chondrocytes were isolated from both knees and shoulders of 3-week-old New Zealand white female rabbits and cultured according to the method of Tamura et al. (Tamura T. et al., Eur. J. Pharmacol., 419, 269-274, 2001). That is, the joints of both knees and the joints of both shoulders were isolated to collect the epiphyseal cartilages. […] The culture solution was removed, and the amount of glycosaminoglycan in extracellular matrix remaining on the plate was measured by the dimethymethylene blue (DMMB) method (Chandrasekhar S. et al., Anal. Biochem. 161 103-108, 1987). […] To 75 μL of this digested solution were added 25 μL of a guanidine hydrochloride buffer (2.88 mol/L guanidine hydrochloride, 50 mmol/L sodium acetate, pH 6.8) and 200 μL of a DMMB solution, and the absorbance was measured at 530/590 nm. The concentration of glycosaminoglycan of each sample was calculated from the absorbance of chondroitin sulfate (derived from whale cartilages, manufactured by Seikagaku Kogyo) used as a standard. Three experiments were performed for each condition and the mean values and the standard error were calculated.

B1: KM1334: anti-FGF-8 neutralizing monoclonal antibody produced by hybridoma KM1334 (FERM BP-5451), mouse IgG1 subclass (antibody, V domains shown)
VH: QVQLQQSGAEVARPGASVKLSCKASGYTFTDYYLNWVKQRSGQGLEWIGEIDPGSDSIYYNENLEGRATLTADKSSSTAYMQLNSLTSEDSAVYFCARYGYSRYDVRFVYWGQGTLVTVST
VL: DVLMTQTPLSLPVSLGDQASISCRSSQSLVHSNGRTYLEWYLQKPGQSPKVLIYKVSNRISGVPDRFSGSGSGTDFTLKISRVEAEDLGVYFCFQGSHVPYTFGGGTKLEIK
- inhibition of the arthritic score [1]: 34%
- antibody concentration at which the promotion of degradation of extracellular matrix of the cartilage with FGF-8 was significantly inhibited (FGF-8): ≥ 3 µg/mL
